Patent US20260000736A1, “PURIFIED LACTOFERRIN COMPOSITIONS AND METHODS OF USE” (Lactea Therapeutics LLC, priority 2023, published 2026)

Legend:
[1] = tested on: ECM of primary buccal cells; test: ECM association by immunofluorescence in primary buccal cells; type: cell-based; conditions: 100 µg/mL for 1 hr at 37 C
Method: Primary buccal cells were next cultured according to a standard protocol (e.g., see Russo et al. Cytotechnology. 2016 October; 68(5): 2105-2114; herein incorporated by reference for all purposes). […] Immunofluorescence imaging was performed as previously described.

[2] = Differential Scanning Calorimetry (DSC) of apolactoferrin and hololactoferrin forms; type: physicochemical
Method: Di[…] Calorimetry (DSC) was used to assess the hololactoferrin and apolactoferrin forms through monitoring unfolding temperatures of lactoferrin samples using a nanoDSC (TA Instruments, Lindon, UT) according to standard DSC protocols known to those of skill in the art (e.g., see Hinz et al “M[…] […] OF […] ON […] DI[…] CALORIMETRY”; herein incorporated by reference for all purposes.
API-E2 Lactoferrin (10 mg/mL), produced as described herein, was assessed by DSC. […] The lack of other peaks indicates the lack of contaminants and impurities and can assess API-E2 as ˜100%. […] Additionally, the lack of other peaks also indicated the purity of API-E2 Lactoferrin. […] The API-E2 hololactoferrin peak has a Tm of 88.38+/−0.8 C and a delta H of 632.7+/−7.2 kJ/mol. The hololactoferrin natively accounted for on average 8.74+/−1.39% of the total API-E2 lactoferrin with apolactoferrin accounting for the rest in the samples tested. However, the hololactoferrin percentage can be naturally variable. The API-E2 was calculated by this technique to contain virtually 100% pure lactoferrin.
The assay was also performed with heat-treated API-E2 Lactoferrin. API-E2 Lactoferrin was heated across a range of 50-100° C.
Lab-grade standard lactoferrin and a commercially available supplement-grade lactoferrin were also assessed by DSC under the conditions used to assess API-E2 above.

Molecule | ECM association of Lactoferrin (immunofluorescence imaging) [1] | Tm, Apolactoferrin peak ([2]; 10 mg/mL) | Tm, Hololactoferrin peak ([2]; 10 mg/mL) | estimated ratio of the apolactoferrin to hololactoferrin peak ([2]; conditions as for API-E2) | detectable apolactoferrin and hololactoferrin DSC peaks ([2]; conditions as for API-E2)
Lab-grade standard lactoferrin: commercially available lab-grade standard lactoferrin (protein, UniProt P24627 20-708, looked up) Lactotransferrin: APRKNVRWCTISQPEWFKCRRWQWRMKKLGAPSITCVRRAFALECIRAIAEKKADAVTLDGGMVFEAGRDPYKLRPVAAEIYGTKESPQTHYYAVAVVKKGSNFQLDQLQGRKSCHTGLGRSAGWIIPMGILRPYLSWTESLEPLQGAVAKFFSASCVPCIDRQAYPNLCQLCKGEGENQCACSSREPYFGYSGAFKCLQDGAGDVAFVKETTVFENLPEKADRDQYELLCLNNSRAPVDAFKECHLAQVPSHAVVARSVDGKEDLIWKLLSKAQEKFGKNKSRSFQLFGSPPGQRDLLFKDSALGFLRIPSKVDSALYLGSRYLTTLKNLRETAEEVKARYTRVVWCAVGPEEQKKCQQWSQQSGQNVTCATASTTDDCIVLVLKGEADALNLDGGYIYTAGKCGLVPVLAENRKSSKHSSLDCVLRPTEGYLAVAVVKKANEGLTWNSLKDKKSCHTAVDRTAGWNIPMGLIVNQTGSCAFDEFFSQSCAPGADPKSRLCALCAGDDQGLDKCVPNSKEKYYGYTGAFRCLAEDVGDVAFVKNDTVWENTNGESTADWAKNLNREDFRLLCLDGTRKPVTEAQSCHLAVAPNHAVVSRSDRAAHVKQVLLHQQALFGKNGKNCPDKFCLFKSETKNLLFNDNTECLAKLGGRPTYEEYLGTEYVTAIANLKKCSTSPLLEACAFLTR | only limited ECM association | 55 C | 85 C | nearly equal | –
heat-treated API-E2 Lactoferrin: API-E2 Lactoferrin heated across a range of 50-100° C. (protein, UniProt P24627 20-708, looked up, heat-treated) Lactotransferrin: APRKNVRWCTISQPEWFKCRRWQWRMKKLGAPSITCVRRAFALECIRAIAEKKADAVTLDGGMVFEAGRDPYKLRPVAAEIYGTKESPQTHYYAVAVVKKGSNFQLDQLQGRKSCHTGLGRSAGWIIPMGILRPYLSWTESLEPLQGAVAKFFSASCVPCIDRQAYPNLCQLCKGEGENQCACSSREPYFGYSGAFKCLQDGAGDVAFVKETTVFENLPEKADRDQYELLCLNNSRAPVDAFKECHLAQVPSHAVVARSVDGKEDLIWKLLSKAQEKFGKNKSRSFQLFGSPPGQRDLLFKDSALGFLRIPSKVDSALYLGSRYLTTLKNLRETAEEVKARYTRVVWCAVGPEEQKKCQQWSQQSGQNVTCATASTTDDCIVLVLKGEADALNLDGGYIYTAGKCGLVPVLAENRKSSKHSSLDCVLRPTEGYLAVAVVKKANEGLTWNSLKDKKSCHTAVDRTAGWNIPMGLIVNQTGSCAFDEFFSQSCAPGADPKSRLCALCAGDDQGLDKCVPNSKEKYYGYTGAFRCLAEDVGDVAFVKNDTVWENTNGESTADWAKNLNREDFRLLCLDGTRKPVTEAQSCHLAVAPNHAVVSRSDRAAHVKQVLLHQQALFGKNGKNCPDKFCLFKSETKNLLFNDNTECLAKLGGRPTYEEYLGTEYVTAIANLKKCSTSPLLEACAFLTR | – | – | – | – | loss in both detectable peaks
